Reference: patent publication US20060286609A1 (BIOCHECK, published 2006)

T1: Human Id3: Histidine (human, UniProt Q02535 1-119, limits assumed)
T1 construct: E. coli fusion protein (vector pGW07); also called h-Id3: His; not shown: His-tag
T1 sequence (looked up): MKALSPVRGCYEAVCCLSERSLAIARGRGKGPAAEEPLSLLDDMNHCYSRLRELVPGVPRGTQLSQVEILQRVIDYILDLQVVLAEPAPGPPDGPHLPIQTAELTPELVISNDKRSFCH

T2: Mouse Id1: Histidine (mouse, UniProt P20067-2 1-148)
T2 construct: E. coli fusion protein (vector pGW07); also called m-Id1-His; not shown: His-tag
T2 sequence: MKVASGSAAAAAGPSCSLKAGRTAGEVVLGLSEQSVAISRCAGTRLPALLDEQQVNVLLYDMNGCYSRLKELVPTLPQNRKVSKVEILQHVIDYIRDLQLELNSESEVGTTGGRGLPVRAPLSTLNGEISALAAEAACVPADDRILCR

T3: Mouse Id3: Histidine (mouse, UniProt P41133 1-119, limits assumed)
T3 construct: E. coli fusion protein (vector pGW07); also called m-Id3: His; not shown: His-tag
T3 sequence (looked up): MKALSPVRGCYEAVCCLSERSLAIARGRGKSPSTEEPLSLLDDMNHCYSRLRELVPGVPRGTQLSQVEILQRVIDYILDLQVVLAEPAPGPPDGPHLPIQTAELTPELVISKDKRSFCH

T4: Mouse Id2: Histidine (mouse, UniProt P41136 1-134, limits assumed)
T4 construct: E. coli fusion protein (vector pGW07); also called m-Id2: His; not shown: His-tag
T4 sequence (looked up): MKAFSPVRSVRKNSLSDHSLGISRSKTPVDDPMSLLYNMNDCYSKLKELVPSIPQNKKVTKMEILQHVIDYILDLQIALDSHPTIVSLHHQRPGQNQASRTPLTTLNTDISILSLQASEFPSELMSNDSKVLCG

T5: Mouse Id4: Histidine (mouse, UniProt P41139 1-161, limits assumed)
T5 construct: E. coli fusion protein (vector pGW07); also called m-Id4: His; not shown: His-tag
T5 sequence (looked up): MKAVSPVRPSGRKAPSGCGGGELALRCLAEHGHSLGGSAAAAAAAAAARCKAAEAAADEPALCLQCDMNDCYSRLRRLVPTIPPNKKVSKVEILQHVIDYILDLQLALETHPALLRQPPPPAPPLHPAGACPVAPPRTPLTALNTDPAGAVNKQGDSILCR

T6: Human Id4: Histidine (human, UniProt P47928 1-161, limits assumed)
T6 construct: E. coli fusion protein (vector pGW07); also called h-Id4: His; not shown: His-tag
T6 sequence (looked up): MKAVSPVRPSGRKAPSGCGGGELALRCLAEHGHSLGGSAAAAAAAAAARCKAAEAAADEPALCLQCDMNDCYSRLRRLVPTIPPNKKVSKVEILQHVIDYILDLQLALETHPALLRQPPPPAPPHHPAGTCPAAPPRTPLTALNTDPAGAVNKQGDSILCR

T7: Human Id2: Histidine (human, UniProt Q02363 1-134, limits assumed)
T7 construct: E. coli fusion protein (vector pGW07); also called h-Id2: His; not shown: His-tag
T7 sequence (looked up): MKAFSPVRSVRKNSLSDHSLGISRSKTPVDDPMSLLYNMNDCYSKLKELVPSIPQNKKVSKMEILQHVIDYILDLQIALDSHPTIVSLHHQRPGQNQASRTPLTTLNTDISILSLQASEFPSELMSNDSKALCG


Key:
Human Id3: Histidine [1] = target: T1, Human Id3: Histidine; assay: ELISA, coated antigen; relative to mouse Id1
Mouse Id1: Histidine [2] = target: T2, Mouse Id1: Histidine; assay: ELISA, coated antigen; reference mouse Id1
[3] = target: Human Id1: Histidine (human) (UniProt P41134); assay: ELISA, coated antigen; reference human Id1
Sequence of Human Id1: Histidine (human) (P41134 whole entry): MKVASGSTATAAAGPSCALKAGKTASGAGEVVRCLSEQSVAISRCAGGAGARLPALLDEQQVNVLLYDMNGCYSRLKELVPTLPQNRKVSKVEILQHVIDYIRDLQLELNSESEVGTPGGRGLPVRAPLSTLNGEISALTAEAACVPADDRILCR

[4] = target: Human Id1: Histidine (human) (UniProt P41134); assay: sandwich ELISA, 5-3-coated wells, human Id1:His 0.5 ng/ml, detected with rabbit polyclonal B-5133-HRP
[5] = target: Human Id1: Histidine (human) (UniProt P41134); assay: sandwich ELISA, 5-3-coated wells, human Id1:His 25.0 ng/ml, detected with rabbit polyclonal B-5133-HRP
Mouse Id3: Histidine = target: T3, Mouse Id3: Histidine; assay: ELISA, coated antigen; relative to human Id1
Mouse Id2: Histidine = target: T4, Mouse Id2: Histidine; assay: ELISA, coated antigen; relative to human Id1
Mouse Id1: Histidine [6] = target: T2, Mouse Id1: Histidine; assay: ELISA, coated antigen; relative to human Id1
Mouse Id4: Histidine = target: T5, Mouse Id4: Histidine; assay: ELISA, coated antigen; relative to human Id1
Human Id4: Histidine = target: T6, Human Id4: Histidine; assay: ELISA, coated antigen; relative to human Id1
Human Id2: Histidine = target: T7, Human Id2: Histidine; assay: ELISA, coated antigen; relative to human Id1
Human Id3: Histidine [7] = target: T1, Human Id3: Histidine; assay: ELISA, coated antigen; relative to human Id1
[8] = target: T8, glutathione S-transferase (GST) (UniProt P08515 1-218 = GST); assay: ELISA, coated antigen, Ab up to 10.0 ug/ml
T8 construct: Coated on wells as control for the fusion partner of the immunogen
T8 sequence (P08515 whole entry, the tested form may be a part): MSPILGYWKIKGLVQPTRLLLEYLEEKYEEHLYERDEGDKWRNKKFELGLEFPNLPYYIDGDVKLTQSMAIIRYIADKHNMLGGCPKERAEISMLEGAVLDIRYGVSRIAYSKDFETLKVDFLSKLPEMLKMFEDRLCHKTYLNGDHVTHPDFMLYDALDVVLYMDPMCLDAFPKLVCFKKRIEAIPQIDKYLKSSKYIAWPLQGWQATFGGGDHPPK
In short: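 Wells were coated with glutathione S-transferase and handled by an ELISA protocol. Coating buffers were 0.2 M sodium phosphate pH 6.5 and 10 mM potassium phosphate pH 7.4, with BSA/sodium azide and sucrose solutions. Antibodies were applied up to 10.0 ug/ml. Bound rabbit antibody was detected with goat anti-rabbit IgG-HRP conjugate and bound mouse antibody with goat anti-mouse IgG-HRP conjugate.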

[9] = target: Human Id1: Histidine (human) (UniProt P41134); assay: ELISA, coated antigen, Ab 2.50 ug/ml
[10] = target: Human Id1: Histidine (human) (UniProt P41134); assay: ELISA, coated antigen, Ab 0.10 ug/ml
[11] = target: Human Id1: Histidine (human) (UniProt P41134); assay: ELISA, coated antigen, Ab 0 ug/ml (blank)

Row | Molecule | Cross-reactivity (%) (Human Id3: Histidine [1]) | Cross-reactivity (%) (Mouse Id1: Histidine [2]) | Cross-reactivity (%) [3] [%] | A450 [4] [A450] | A450 [5] [A450] | Cross-reactivity (%) (Mouse Id3: Histidine) | Cross-reactivity (%) (Mouse Id2: Histidine) | Cross-reactivity (%) (Mouse Id1: Histidine [6]) | Cross-reactivity (%) (Mouse Id4: Histidine) | Cross-reactivity (%) (Human Id4: Histidine) | Cross-reactivity (%) (Human Id2: Histidine) | Cross-reactivity (%) (Human Id3: Histidine [7]) | binding result [8] | A450 [9] [A450] | A450 [10] [A450] | A450 [11] [A450]
1 | rabbit monoclonal anti-mouse/human Id1, clone #BCH-1/#195-14 (antibody) | < 1 | 100 | – | – | – | – | – | – | – | – | – | – | – | – | – | –
2 | rabbit monoclonal anti-human Id1, clone #BCH-2/#5-3 (antibody) | – | – | 100 | 0.085 | 1.94 | < 1 | < 1 | < 1 | < 1 | < 1 | < 1 | < 1 | – | – | – | –
3 | rabbit monoclonal anti-mouse Id1, clone #BCH-1/#37-2 (antibody, V domains shown, Rabbit IgG from hybridoma, Protein G purified; also called m Id1 MoAb 37-2; Rabbit Monoclonal Anti-Mouse Id1 (#37-2)) VH: QSVEESGGRLVTPGTPLTLTCKVSGFDINSYAMDWFRQAPGKGLEWIGMMSTRGNTYYTSWAKGRFTISKTSSTTVDLKMTSLTTEDTATYFCARGGLWGPGTLVTVSS VL: RVLTQTASPVSAAVGGTVTINCQASQSVYNGNRLGWYQLKPGQSPKELIHDASTLASGVPSRFRGSGSGTQFTLTINDVQCDDAATYYCVGSYACSTGDCNVFGGGTEVVVK | < 1 | – | – | – | – | – | – | – | – | – | – | – | no binding | 0.132 | 0.061 | 0.047
